Experimental data from patent publication US20220363770A1 (Amgen, published 2022).

T1: human PAC1 receptor (human, UniProt P41586 24-468)
T1 sequence: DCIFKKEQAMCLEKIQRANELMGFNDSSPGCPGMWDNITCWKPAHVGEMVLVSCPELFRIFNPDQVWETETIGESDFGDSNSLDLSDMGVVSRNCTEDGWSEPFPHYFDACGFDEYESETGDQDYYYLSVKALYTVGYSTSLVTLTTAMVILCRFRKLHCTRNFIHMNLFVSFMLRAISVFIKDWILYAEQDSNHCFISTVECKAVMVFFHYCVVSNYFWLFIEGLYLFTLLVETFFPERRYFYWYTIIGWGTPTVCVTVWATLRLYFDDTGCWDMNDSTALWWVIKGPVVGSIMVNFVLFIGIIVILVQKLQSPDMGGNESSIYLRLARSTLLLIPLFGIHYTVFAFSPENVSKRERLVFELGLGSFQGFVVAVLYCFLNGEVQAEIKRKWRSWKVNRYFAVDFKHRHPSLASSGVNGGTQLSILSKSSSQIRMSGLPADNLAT


What was measured:
human CGRP receptor = human CGRP receptor (human, UniProt Q16602 23-461; O60894 27-148); assay: cell-based or functional assay
human PAC1 receptor = target: T1, human PAC1 receptor; assay: cell-based or functional assay

Chain of human CGRP receptor (Q16602 23-461 limits assumed, chain 1 of 2): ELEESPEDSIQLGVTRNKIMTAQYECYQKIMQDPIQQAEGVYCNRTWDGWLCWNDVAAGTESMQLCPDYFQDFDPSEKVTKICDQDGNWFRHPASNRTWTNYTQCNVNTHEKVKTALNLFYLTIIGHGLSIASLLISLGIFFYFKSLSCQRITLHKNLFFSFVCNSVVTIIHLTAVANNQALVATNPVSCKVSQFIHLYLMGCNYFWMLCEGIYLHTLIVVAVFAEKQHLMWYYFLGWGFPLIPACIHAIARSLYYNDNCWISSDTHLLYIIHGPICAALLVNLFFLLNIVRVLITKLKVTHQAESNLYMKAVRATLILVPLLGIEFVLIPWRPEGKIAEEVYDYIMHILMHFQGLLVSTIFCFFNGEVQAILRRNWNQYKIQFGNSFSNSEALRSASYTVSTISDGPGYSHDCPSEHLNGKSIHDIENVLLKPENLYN
Chain of human CGRP receptor (O60894 27-148 limits assumed, chain 2 of 2): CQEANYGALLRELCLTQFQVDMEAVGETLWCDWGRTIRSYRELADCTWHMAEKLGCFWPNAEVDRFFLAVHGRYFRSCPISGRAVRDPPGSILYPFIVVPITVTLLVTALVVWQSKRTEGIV

Row | Binder | Fold-improvement over 4E4 Ab (human CGRP receptor) [fold] | IC50 (human CGRP receptor) [nM] | Fold-improvement over 29G4v22 Ab (human PAC1 receptor) [fold] | IC50 (human PAC1 receptor) [nM]
1 | iPS:454565 (5606) (bispecific antibody, human IgG1, kappa, lambda, N297G) light 1: QSVLTQPPSVSAAPGQKVTISCSGSYSNIGRYSVSWYQQLPGTAPKLLIYDNNKRPSGIPDRFSGSKSGTSATLGITGLQTGDEADYYCGTWDSRLSAVVFGGGTKLTVLGQPKAAPSVTLFPPSSEELQANKATLVCLISDFYPGAVTVAWKADSSPVKAGVETTTPSKQSNNKYAAKSYLSLTPEQWKSHRSYSCQVTHEGSTVEKTVAPTECS heavy 1: QVQLVESGGGVVQPGRSLRLSCAASGFTFSSFGMHWVRQAPGKGLEWVAVISFDGSIKYSVDSVKGRFTISRDNSKNTLFLQMNSLRAEDTAVYYCARDRLNYYESSGYYHYKYYGMAVWGQGTTVTVSSASTKGPSVFPLAPSSKSTSGGTAALGCLVKDYFPEPVTVSWNSGALTSGVHTFPAVLQSSGLYSLESVVTVPSSSLGTQTYICNVNHKPSNTKVDKKVEPKSCDKTHTCPPCPAPELLGGPSVFLFPPKPKDTLMISRTPEVTCVVVDVSHEDPEVKFNWYVDGVEVHNAKTKPCEEQYGSTYRCVSVLTVLHQDWLNGKEYKCKVSNKALPAPIEKTISKAKGQPREPQVYTLPPSRKEMTKNQVSLTCLVKGFYPSDIAVEWESNGQPENNYKTTPPVLKSDGSFFLYSKLTVDKSRWQQGNVFSCSVMHEALHNHYTQKSLSLSPGK light 2: EIVLTQSPATLSLSPGERATLSCRASKSVGRSLHWYQQKPGQAPRLLIKYASQSLSGIPARFSGSGSGTDFTLTISSLEPEDFAVYYCHQSSRLPFTFGPGTKVDIKRTVAAPSVFIFPPSDEQLKSGTASVVCLLNNFYPREAKVQWKVDNALQSGNSQESVTEQDSKDSTYSLESTLTLSKADYEKHKVYACEVTHQGLSSPVTKSFNRGEC heavy 2: not shown | 0.8 | 0.66 | 5.9 | 0.69
2 | iPS:454583 (bispecific antibody, human IgG1, kappa, lambda, N297G) light 1: QSVLTQPPSVSAAPGQKVTISCSGSYSNIGRYSVSWYQQLPGTAPKLLIYDNNKRPSGIPDRFSGSKSGTSATLGITGLQTGDEADYYCGTWDSRLSAVVFGGGTKLTVLGQPKAAPSVTLFPPSSEELQANKATLVCLISDFYPGAVTVAWKADSSPVKAGVETTTPSKQSNNKYAAKSYLSLTPEQWKSHRSYSCQVTHEGSTVEKTVAPTECS heavy 1: QVQLVESGGGVVQPGRSLRLSCAASGFTFSSFGMHWVRQAPGKGLEWVAVISFDGSIKYSVDSVKGRFTISRDNSKNTLFLQMNSLRAEDTAVYYCARDRLNYYESSGYYHYKYYGMAVWGQGTTVTVSSASTKGPSVFPLAPSSKSTSGGTAALGCLVKDYFPEPVTVSWNSGALTSGVHTFPAVLQSSGLYSLESVVTVPSSSLGTQTYICNVNHKPSNTKVDKKVEPKSCDKTHTCPPCPAPELLGGPSVFLFPPKPKDTLMISRTPEVTCVVVDVSHEDPEVKFNWYVDGVEVHNAKTKPCEEQYGSTYRCVSVLTVLHQDWLNGKEYKCKVSNKALPAPIEKTISKAKGQPREPQVYTLPPSRKEMTKNQVSLTCLVKGFYPSDIAVEWESNGQPENNYKTTPPVLKSDGSFFLYSKLTVDKSRWQQGNVFSCSVMHEALHNHYTQKSLSLSPGK light 2: EIVLTQSPATLSLSPGERATLSCRASKSVGWSLHWYQQKPGQAPRLLIKYASQSLSGIPARFSGSGSGTDFTLTISSLEPEDFAVYYCHQSSRLPFTFGPGTKVDIKRTVAAPSVFIFPPSDEQLKSGTASVVCLLNNFYPREAKVQWKVDNALQSGNSQESVTEQDSKDSTYSLESTLTLSKADYEKHKVYACEVTHQGLSSPVTKSFNRGEC heavy 2: not shown | 1.1 | 0.51 | 2.8 | 2.48
3 | iPS:454569 (bispecific antibody, human IgG1, kappa, lambda, N297G) light 1: QSVLTQPPSVSAAPGQKVTISCSGSYSNIGRYSVSWYQQLPGTAPKLLIYDNNKRPSGIPDRFSGSKSGTSATLGITGLQTGDEADYYCGTWDSRLSAVVFGGGTKLTVLGQPKAAPSVTLFPPSSEELQANKATLVCLISDFYPGAVTVAWKADSSPVKAGVETTTPSKQSNNKYAAKSYLSLTPEQWKSHRSYSCQVTHEGSTVEKTVAPTECS heavy 1: QVQLVESGGGVVQPGRSLRLSCAASGFTFSSFGMHWVRQAPGKGLEWVAVISFDGSIKYSVDSVKGRFTISRDNSKNTLFLQMNSLRAEDTAVYYCARDRLNYYESSGYYHYKYYGMAVWGQGTTVTVSSASTKGPSVFPLAPSSKSTSGGTAALGCLVKDYFPEPVTVSWNSGALTSGVHTFPAVLQSSGLYSLESVVTVPSSSLGTQTYICNVNHKPSNTKVDKKVEPKSCDKTHTCPPCPAPELLGGPSVFLFPPKPKDTLMISRTPEVTCVVVDVSHEDPEVKFNWYVDGVEVHNAKTKPCEEQYGSTYRCVSVLTVLHQDWLNGKEYKCKVSNKALPAPIEKTISKAKGQPREPQVYTLPPSRKEMTKNQVSLTCLVKGFYPSDIAVEWESNGQPENNYKTTPPVLKSDGSFFLYSKLTVDKSRWQQGNVFSCSVMHEALHNHYTQKSLSLSPGK light 2: EIVLTQSPATLSLSPGERATLSCRASKSVGRSLHWYQQKPGQAPRLLIKYASQSLSGIPARFSGSGSGTDFTLTISSLEPEDFAVYYCHQSSRLPFTFGPGTKVDIKRTVAAPSVFIFPPSDEQLKSGTASVVCLLNNFYPREAKVQWKVDNALQSGNSQESVTEQDSKDSTYSLESTLTLSKADYEKHKVYACEVTHQGLSSPVTKSFNRGEC heavy 2: not shown | 0.41 | 1.42 | 3.8 | 1.27
4 | iPS:454587 (bispecific antibody, human IgG1, kappa, lambda, N297G) light 1: QSVLTQPPSVSAAPGQKVTISCSGSYSNIGRYSVSWYQQLPGTAPKLLIYDNNKRPSGIPDRFSGSKSGTSATLGITGLQTGDEADYYCGTWDSRLSAVVFGGGTKLTVLGQPKAAPSVTLFPPSSEELQANKATLVCLISDFYPGAVTVAWKADSSPVKAGVETTTPSKQSNNKYAAKSYLSLTPEQWKSHRSYSCQVTHEGSTVEKTVAPTECS heavy 1: QVQLVESGGGVVQPGRSLRLSCAASGFTFSSFGMHWVRQAPGKGLEWVAVISFDGSIKYSVDSVKGRFTISRDNSKNTLFLQMNSLRAEDTAVYYCARDRLNYYESSGYYHYKYYGMAVWGQGTTVTVSSASTKGPSVFPLAPSSKSTSGGTAALGCLVKDYFPEPVTVSWNSGALTSGVHTFPAVLQSSGLYSLESVVTVPSSSLGTQTYICNVNHKPSNTKVDKKVEPKSCDKTHTCPPCPAPELLGGPSVFLFPPKPKDTLMISRTPEVTCVVVDVSHEDPEVKFNWYVDGVEVHNAKTKPCEEQYGSTYRCVSVLTVLHQDWLNGKEYKCKVSNKALPAPIEKTISKAKGQPREPQVYTLPPSRKEMTKNQVSLTCLVKGFYPSDIAVEWESNGQPENNYKTTPPVLKSDGSFFLYSKLTVDKSRWQQGNVFSCSVMHEALHNHYTQKSLSLSPGK light 2: EIVLTQSPATLSLSPGERATLSCRASKSVGWSLHWYQQKPGQAPRLLIKYASQSLSGIPARFSGSGSGTDFTLTISSLEPEDFAVYYCHQSSRLPFTFGPGTKVDIKRTVAAPSVFIFPPSDEQLKSGTASVVCLLNNFYPREAKVQWKVDNALQSGNSQESVTEQDSKDSTYSLESTLTLSKADYEKHKVYACEVTHQGLSSPVTKSFNRGEC heavy 2: not shown | 0.9 | 0.58 | 1.3 | 4.36
5 | iPS:454585 (bispecific antibody, human IgG1, kappa, lambda, N297G) light 1: QSVLTQPPSVSAAPGQKVTISCSGSYSNIGRYSVSWYQQLPGTAPKLLIYDNNKRPSGIPDRFSGSKSGTSATLGITGLQTGDEADYYCGTWDSRLSAVVFGGGTKLTVLGQPKAAPSVTLFPPSSEELQANKATLVCLISDFYPGAVTVAWKADSSPVKAGVETTTPSKQSNNKYAAKSYLSLTPEQWKSHRSYSCQVTHEGSTVEKTVAPTECS heavy 1: QVQLVESGGGVVQPGRSLRLSCAASGFTFSSFGMHWVRQAPGKGLEWVAVISFDGSIKYSVDSVKGRFTISRDNSKNTLFLQMNSLRAEDTAVYYCARDRLNYYESSGYYHYKYYGMAVWGQGTTVTVSSASTKGPSVFPLAPSSKSTSGGTAALGCLVKDYFPEPVTVSWNSGALTSGVHTFPAVLQSSGLYSLESVVTVPSSSLGTQTYICNVNHKPSNTKVDKKVEPKSCDKTHTCPPCPAPELLGGPSVFLFPPKPKDTLMISRTPEVTCVVVDVSHEDPEVKFNWYVDGVEVHNAKTKPCEEQYGSTYRCVSVLTVLHQDWLNGKEYKCKVSNKALPAPIEKTISKAKGQPREPQVYTLPPSRKEMTKNQVSLTCLVKGFYPSDIAVEWESNGQPENNYKTTPPVLKSDGSFFLYSKLTVDKSRWQQGNVFSCSVMHEALHNHYTQKSLSLSPGK light 2: EIVLTQSPATLSLSPGERATLSCRASKSVGWSLHWYQQKPGQAPRLLIKYASQSLSGIPARFSGSGSGTDFTLTISSLEPEDFAVYYCHQSSRLPFTFGPGTKVDIKRTVAAPSVFIFPPSDEQLKSGTASVVCLLNNFYPREAKVQWKVDNALQSGNSQESVTEQDSKDSTYSLESTLTLSKADYEKHKVYACEVTHQGLSSPVTKSFNRGEC heavy 2: not shown | 1.1 | 0.51 | 2.1 | 2.65
6 | iPS:454729 (bispecific antibody, human IgG1, kappa, lambda, N297G) light 1: QSVLTQPPSVSAAPGQKVTISCSGSYSNIGRYSVSWYQQLPGTAPKLLIYDNNKRPSGIPDRFSGSKSGTSATLGITGLQTGDEADYYCGTWDSRLSAVVFGGGTKLTVLGQPKAAPSVTLFPPSSEELQANKATLVCLISDFYPGAVTVAWKADSSPVKAGVETTTPSKQSNNKYAAKSYLSLTPEQWKSHRSYSCQVTHEGSTVEKTVAPTECS heavy 1: QVQLVESGGGVVQPGRSLRLSCAASGFTFSSFGMHWVRQAPGKGLEWVAVISFDGSIKYSVDSVKGRFTISRDNSKNTLFLQMNSLRAEDTAVYYCARDRLNYYESSGYYHYKYYGMAVWGQGTTVTVSSASTKGPSVFPLAPSSKSTSGGTAALGCLVKDYFPEPVTVSWNSGALTSGVHTFPAVLQSSGLYSLESVVTVPSSSLGTQTYICNVNHKPSNTKVDKKVEPKSCDKTHTCPPCPAPELLGGPSVFLFPPKPKDTLMISRTPEVTCVVVDVSHEDPEVKFNWYVDGVEVHNAKTKPCEEQYGSTYRCVSVLTVLHQDWLNGKEYKCKVSNKALPAPIEKTISKAKGQPREPQVYTLPPSRKKMTKNQVSLTCLVKGFYPSDIAVEWESNGQPENNYKTTPPVLKSDGSFFLYSKLTVDKSRWQQGNVFSCSVMHEALHNHYTQKSLSLSPGK light 2: EIVLTQSPATLSLSPGERATLSCRASKSVGQSLHWYQQKPGQAPRLLIKYASQSLSGIPARFSGSGSGTDFTLTISSLEPEDFAVYYCHQSSRLPFTFGPGTKVDIKRTVAAPSVFIFPPSDEQLKSGTASVVCLLNNFYPREAKVQWKVDNALQSGNSQESVTEQDSKDSTYSLESTLTLSKADYEKHKVYACEVTHQGLSSPVTKSFNRGEC heavy 2: not shown | 1 | 0.53 | 6.9 | 0.97
